# Results as given in article doi:10.1101/600692v2.
# What was measured:
# purified protein [1] = substrate: C=C(O[C@H]1C=CC=C(C(=O)O)[C@@H]1O)C(=O)O; experiment: purified protein; settings: with glutamate and ATP; isochorismate made from chorismate by ICS1
# purified protein [2] = substrate: O=C(O)c1ccc(O)cc1; experiment: purified protein; settings: with glutamate and ATP
protein,measurement,setting,value
PBS3 (AvrPphB SUSCEPTIBLE3) (Arabidopsis thaliana) (protein) MKPIFDINETFEKQLKDLTSNVKSIQDNLLEEIITPNTKTEYLQRFLIDRFDKELFKKNVPIVSYEDIKPYLDRVVNGESSDVISARTITGFLLSSGTSGGAQKMMPWNNKYLDNLTFIYDLRMQVITKHVKGVEEGKGMMFLFTKQESMTPSGLPARVATSSYFKSDYFKNRPSNWYYSYTSPDEVILCPNNTESLYCHLLCGLVQRDEVVRTGSIFASVMVRAIEVLKNSWEELCSNIRSGHLSNWVTDLGCQNSVSLVLGGPRPELADTIEEICNQNSWKGIVKRLWPNTKYIETVVTGSMGQYVPMLNYYCNDLPLVSTTYGSSETTFGINLDPLCKPEDVSYTFMPNMSYFEFIPMDGGDKNDVVDLEDVKLGCTYEPVVTNFAGLYRMRVGDIVLVTGFYNNAPQFKFVRRENVVLSIDSDKTNEEDLFKAVSQAKLVLESSGLDLKDFTSYADTSTFPGHYVVYLEVDTKEGEEKETAQFELDEEALSTCCLVMEESLDNVYKRCRFKDGSIGPLEIRVVRQGTFDSLMDFFISQGASTGQYKTPRCIKSGKALQVLETCVVAKFFSI,Km,purified protein [1],14.90 µM
same,kcat,purified protein [1],472.29 min^-1 (printed as V/Et)
same,Km,purified protein [2],311.54 µM
same,kcat,purified protein [2],13.46 min^-1 (printed as V/Et)
